Laboratory results taken from patent publication US20240124582A1 (published 2024).

These binders were tested against T1, soluble LAG-3 fusion protein: extracelluar domain of cynomolgus monkey LAG-3 fused to murine IgG2a (cynomolgus monkey; murine) (assay: SPR (Biacore); cynomolgus LAG-3-murine IgG2a captured on Fab2 goat-anti mouse Fc, antibody in solution).
T1 construct: extracellular domain; also called cynomolgus LAG-3-murine IgG2a fusion protein
Description: In additional studies, the binding kinetics of the humanized antibodies hLAG-3 mAb 1 (1.4) and hLAG-3 mAb 6 (1.1), and a reference antibody LAG-3 mAb A to both human and cynomolgus monkey LAG-3 was investigated using Biacore analysis. In these studies, a soluble LAG-3 fusion protein (the extracelluar domain of human or cynomolgus monkey LAG-3 fused to murine IgG2a) was captured on a Fab2 goat-anti mouse Fc surface and incubated with the anti-LAG-3 antibody and the kinetics of binding was determined via Biacore analysis. The binding curves for LAG-3 mAb A, hLAG-3 mAb 1 (1.4) and hLAG-3 mAb 6 (1.1) binding to cynomolgus monkey LAG-3 are shown in FIGS. 7A-7C respectively, and the calculated ka, kd and KD are presented in Table 8. In a separate study, the binding of a bispecific Fc Region-containing diabody comprising hLAG-3 mAb 6 (1.1) to both human and cynomolgus monkey LAG-3 was investigated using Biacore analysis. In this study, the hLAG-3 mAb 6 (1.1) containing diabody was captured on a Fab2 goat-anti human Fc surface and incubated with soluble LAG-3 fusion protein (the extracelluar domain of human or cynomolgus monkey LAG-3 fused to a His tag) and the kinetics of binding was determined via Biacore analysis.

Binder | Kd
hLAG-3 mAb 6 (1.1) (antibody, V domains shown, also called hLAG-3 6 (1.1); humanized LAG-3 mAb 6) VH: QVQLVQSGAEVKKPGASVKVSCKASGYTFTDYNMDWVRQAPGQGLEWMGDINPDNGVTIYNQKFEGRVTMTTDTSTSTAYMELRSLRSDDTAVYYCAREADYFYFDYWGQGTTLTVSS VL: DIQMTQSPSSLSASVGDRVTITCRASQDVSSVVAWYQQKPGKAPKLLIYSASYRYTGVPSRFSGSGSGTDFTLTISSLQPEDFATYYCQQHYSTPWTFGGGTKLEIK | 3.7 nM
hLAG-3 mAb 1 (1.4), constant region not stated (antibody, V domains shown, also called hLAG-3 1 (1.4)) VH: QVQLVQSGAEVKKPGASVKVSCKASGYTFTNYGMNWVRQAPGQGLEWMGWINTYTGESTYADDFEGRFVFSMDTSASTAYLQISSLKAEDTAVYYCARESLYDYYSMDYWGQGTTVTVSS VL: DIVMTQTPLSLSVTPGQPASISCKSSQSLLHSDAKTYLNWLLQKPGQPPERLIYLVSELDSGVPDRFSGSGSGTDFTLKISRVEAEDVGVYYCWQGTHFPYTFGGGTKVEIK | < 0.53 nM
25F7 (BMS-986016, Medarex/BMS), designated LAG-3 mAb A (antibody, V domains shown, also called LAG-2 mAb A) VH: QVQLQQWGAGLLKPSETLSLTCAVYGGSFSDYYWNWIRQPPGKGLEWIGEINHNGNTNSNPSLKSRVTLSLDTSKNQFSLKLRSVTAADTAVYYCAFGYSDYEYNWFDPWGQGTLVTVSS VL: EIVLTQSPATLSLSPGERATLSCRASQSISSYLAWYQQKPGQAPRLLIYDASNRATGIPARFSGSGSGTDFTLTISSLEPEDFAVYYCQQRSNWPLTFGQGTNLEIK | 458 nM
